One protein from US4605614A, “Method for measuring plasmin” (Nitto Boseki Co., Ltd., priority 1981, dated 1986) can be followed below.

Assay in all cases: Km, Vmax and Vmax/Km of substrates for plasmin (pig)
Type in all cases: biochemical, Porcine (pig)

Substrate in data set [1]: CC(C)C[C@H](NC(=O)[C@H](N)C(C)C)C(=O)N[C@@H](CCCCN)C(=O)Nc1ccc(O)c(C(=O)O)c1
The following applies: other: TABLE 2, CHA substrates, plasmin (pig), 2,6-xylenol 615 nm.
From the text: (§1) The substrates produced by the above examples were used in the measurement of plasmin as follows: The principle of this measurement comprises quantitatively analyzing the decomposition product p-nitroaniline or 3-carboxy-4-hydroxyaniline produced by the enzymatic hydrolysis, by measuring the absorbance (O.D.) directly at 405 nm in the case of p-nitroaniline and, in the case of the 3-carboxy-4-hydroxyaniline at 615 nm after condensing it with 2,6-xylenol in the presence of an oxidant to develop a color.
(§2) For the measurements of these constants, the following method is adopted:
(§3) The enzyme and the substrate are mixed in a buffer solution and subjected to the hydrolysis for 30 seconds. The concentration of the substrate [S] is changed and the enzyme concentration is maintained constant. By measuring the absorbance (O.D.), the initial velocity of the hydrolysis can be determined. Where 1/V is plotted as a function of 1/[S], there is obtained a Lineweaver and Burk's linea from which graph the Vmax and Km can be determined.

Substrate in data set [2]: CC(C)OC(=O)C[C@@H](N)C(=O)N[C@@H](Cc1ccccc1)C(=O)N[C@@H](CCCCN)C(=O)Nc1ccc(O)c(C(=O)O)c1
The following applies: other: TABLE 2, CHA substrates, plasmin (pig), 2,6-xylenol 615 nm.
From the text: as §1, §2, §3

Substrate in data set [3]: CCCC(=O)NCCCC[C@@H](N)C(=O)N[C@@H](Cc1ccccc1)C(=O)N[C@@H](CCCCN)C(=O)Nc1ccc(O)c(C(=O)O)c1
The following applies: other: TABLE 2, CHA substrates, plasmin (pig), 2,6-xylenol 615 nm.
From the text: as §1, §2, §3

Substrate in data set [4]: CS(=O)(=O)NCCCC[C@@H](N)C(=O)N[C@@H](Cc1ccccc1)C(=O)N[C@@H](CCCCN)C(=O)Nc1ccc(O)c(C(=O)O)c1
The following applies: other: TABLE 2, CHA substrates, plasmin (pig), 2,6-xylenol 615 nm.
From the text: as §1, §2, §3

Substrate in data set [5]: Cc1ccc(C(=O)NCCCC[C@@H](N)C(=O)N[C@@H](Cc2ccccc2)C(=O)N[C@@H](CCCCN)C(=O)Nc2ccc([N+](=O)[O-])cc2)cc1
The following applies: other: TABLE 1, PNA substrates, plasmin (pig), 405 nm.
From the text: as §1, §2, §3

Substrate in data set [6]: Cc1ccc(CCNC(=O)CC[C@@H](N)C(=O)N[C@@H](Cc2ccccc2)C(=O)N[C@@H](CCCCN)C(=O)Nc2ccc(O)c(C(=O)O)c2)cc1
The following applies: other: TABLE 2, CHA substrates, plasmin (pig), 2,6-xylenol 615 nm.
From the text: as §1, §2, §3

Substrate in data set [7]: Cc1ccc(CCOC(=O)CC[C@@H](N)C(=O)N[C@@H](Cc2ccccc2)C(=O)N[C@@H](CCCCN)C(=O)Nc2ccc([N+](=O)[O-])cc2)cc1
The following applies: other: TABLE 1, PNA substrates, plasmin (pig), 405 nm.
From the text: as §1, §2, §3

Substrate in data set [8]: Cc1ccc(S(=O)(=O)NCCCC[C@@H](N)C(=O)N[C@@H](CC(C)C)C(=O)N[C@@H](CCCCN)C(=O)Nc2ccc([N+](=O)[O-])cc2)cc1
The following applies: other: TABLE 1, PNA substrates, plasmin (pig), 405 nm.
From the text: as §1, §2, §3

Substrate in data set [9]: Cc1ccc(S(=O)(=O)NCCCC[C@@H](N)C(=O)N[C@@H](Cc2ccccc2)C(=O)N[C@@H](CCCCN)C(=O)Nc2ccc([N+](=O)[O-])cc2)cc1
From the text: as §1, §2, §3
Substrate in data set [10]: Cc1ccc(S(=O)(=O)NCCCC[C@H](N)C(=O)N[C@@H](Cc2ccccc2)C(=O)N[C@@H](CCCCN)C(=O)Nc2ccc(O)c(C(=O)O)c2)cc1
The following applies: other: TABLE 2, CHA substrates, plasmin (pig), 2,6-xylenol 615 nm.
From the text: as §1, §2, §3

Substrate in data set [11]: Cc1ccc(S(=O)(=O)Oc2ccc(C[C@@H](N)C(=O)N[C@@H](CC(C)C)C(=O)N[C@@H](CCCCN)C(=O)Nc3ccc(O)c(C(=O)O)c3)cc2)cc1
The following applies: other: TABLE 2, CHA substrates, plasmin (pig), 2,6-xylenol 615 nm.
From the text: as §1, §2, §3

Substrate in data set [12]: NCCCC[C@@H](N)C(=O)N[C@@H](Cc1ccccc1)C(=O)N[C@@H](CCCCN)C(=O)Nc1ccc(O)c(C(=O)O)c1
The following applies: other: TABLE 2, CHA substrates, plasmin (pig), 2,6-xylenol 615 nm.
From the text: as §1, §2, §3

Substrate in data set [13]: NCCCC[C@H](NC(=O)[C@H](Cc1ccccc1)NC(=O)[C@H](N)CCC(=O)NCCCCc1ccccc1)C(=O)Nc1ccc([N+](=O)[O-])cc1
The following applies: other: TABLE 1, PNA substrates, plasmin (pig), 405 nm.
From the text: as §1, §2, §3

Substrate in data set [14]: NCCCC[C@H](NC(=O)[C@H](Cc1ccccc1)NC(=O)[C@H](N)CCC(=O)OC1CCCCC1)C(=O)Nc1ccc([N+](=O)[O-])cc1
The following applies: other: TABLE 1, PNA substrates, plasmin (pig), 405 nm.
From the text: as §1, §2, §3

Substrate in data set [15]: NCCCC[C@H](NC(=O)[C@H](Cc1ccccc1)NC(=O)[C@H](N)CCCCNS(=O)(=O)c1ccc2ccccc2c1)C(=O)Nc1ccc(O)c(C(=O)O)c1
The following applies: other: TABLE 2, CHA substrates, plasmin (pig), 2,6-xylenol 615 nm.
From the text: as §1, §2, §3

Substrate in data set [16]: NCCCC[C@H](NC(=O)[C@H](Cc1ccccc1)NC(=O)[C@H](N)CCCCNS(=O)(=O)c1ccc2ccccc2c1)C(=O)Nc1ccc([N+](=O)[O-])cc1
The following applies: other: TABLE 1, PNA substrates, plasmin (pig), 405 nm.
From the text: as §1, §2, §3

Substrate in data set [17]: NCCCC[C@H](NC(=O)[C@H](Cc1ccccc1)NC(=O)[C@H](N)CCCCNS(=O)(=O)c1ccccc1)C(=O)Nc1ccc(O)c(C(=O)O)c1
From the text: as §1, §2, §3
The following applies: other: TABLE 2, CHA substrates, plasmin (pig), 2,6-xylenol 615 nm.

B1: plasmin (pig) (Sus scrofa) (protein)
chain: RIYLSECKTGNGKNYRGTTSKTKSGVICQKWSVSSPHIPKYSPEKFPLAGLEENYCRNPDNDEKGPWCYTTDPETRFDYCDIPECEDECMHCSGEHYEGKISKTMSGIECQSWGSQSPHAHGYLPSKFPNKNLKMNYCRNPDGEPRPWCFTTDPNKRWEFCDIPRCTTPPPTSGPTYQCLKGRGENYRGTVSVTASGHTCQRWSAQSPHKHNRTPENFPCKNLEENYCRNPDGETAPWCYTTDSEVRWDYCKIPSCGSSTTSTEYLDAPVPPEQTPVAQDCYRGNGESYRGTSSTTITGRKCQSWVSMTPHRHEKTPGNFPNAGLTMNYCRNPDADKSPWCYTTDPRVRWEYCNLKKCSETEQQVTNFPAIAQVPSVEDLSEDCMFGNGKRYRGKRATTVAGVPCQEWAAQEPHRHSIFTPETNPRAGLEKNYCRNPDGDDNGPWCYTTNPQKLFDYCDVPQCVTSSFDCGKPKVEPKKCPARVVGGCVSIPHSWPWQISLRHRYGGHFCGGTLISPEWVLTAKHCLEKSSSPSSYKVILGAHEEYHLGEGVQEIDVSKLFKEPSEADIALLKLSSPAIITDKVIPACLPTPNYVVADRTACYITGWGETKGTYGAGLLKEARLPVIENKVCNRYEYLGGKVSPNELCAGHLAGGIDSCQGDSGGPLVCFEKDKYILQGVTSWGLGCALPNKPGVYVRVSRFVTWIEEIMRRN
Usually Km stands for the substrate concentration at which the rate is half of its maximum. As for B1, the Km in data set [1] worked out at 3210 µM; in data set [2], 352 µM; in data set [3] it was 239 µM; in data set [4], 326 µM; in data set [5], 15.5 µM; in data set [6], 417 µM. The Km in data set [7] is 42.8 µM; in data set [8], 189 µM; in data set [9] (other: Porcine Plasmin, comparison table in description), 16 µM; in data set [9] (other: TABLE 1, PNA substrates, plasmin (pig), 405 nm) it was 15.8 µM; in data set [10], 292 µM; in data set [11], 1440 µM. Further, the Km in data set [12] turned out to be 222 µM; in data set [13] it was 45.4 µM; in data set [14], 32.2 µM; in data set [15] it was 179 µM; in [16], 17.9 µM; in data set [17] it was 532 µM.
